Literature values in US20220347322A1, “METHOD OF TREATING ARTERIOVENOUS MALFORMATIONS BY TARGETING THE EPHRIN PATHWAY” (THE REGENTS OF THE UNIVERSITY OF CALIFORNIA, priority 2019, published 2022).

System: EphB4 signaling
Conditions: in mice; cited reference 38; cited from earlier work

B1: sEphB4: The soluble extracellular domain of EphB4; pharmacological inhibitor of EphB4 signaling (protein, UniProt P54760 16-539, looked up)
extracellular domain: LEETLLNTKLETADLKWVTFPQVDGQWEELSGLDEEQHSVRTYEVCDVQRAPGQAHWLRTGWVPRRGAVHVYATLRFTMLECLSLPRAGRSCKETFTVFYYESDADTATALTPAWMENPYIKVDTVAAEHLTRKRPGAEATGKVNVKTLRLGPLSKAGFYLAFQDQGACMALLSLHLFYKKCAQLTVNLTRFPETVPRELVVPVAGSCVVDAVPAPGPSPSLYCREDGQWAEQPVTGCSCAPGFEAAEGNTKCRACAQGTFKPLSGEGSCQPCPANSHSNTIGSAVCQCRVGYFRARTDPRGAPCTTPPSAPRSVVSRLNGSSLHLEWSAPLESGGREDLTYALRCRECRPGGSCAPCGGDLTFDPGPRDLVEPWVVVRGLRPDFTYTFEVTALNGVSSLATGPVPFEPVNVTTDREVPPAVSDIRVTRSSPSSLSLAWAVPRAPSGAVLDYEVKYHEKGAEGPSSVRFLKTSENRAELRGLKRGASYLVQVRARSEAGYGPFGQEHHSQTQLDESEGWREQLA
modifications: extracellular domain
  inhibition of EphB4 signaling: completely inhibits EphB4 signaling
